The values below come from patent US20220290149, “METHOD OF DETECTION OF FIBRIN CLOTS” (I-ZUM-X PTY LTD, published 2022).

The target in series [1] is T1, D-dimer (TGpr1; fibrin clot degradation product DD) (UniProt P02671;P02675;P02679-2 P02671:124-225,P02675:164-491,P02679-2:89-437). Description: ELONA; considered non-specific. The following applies: chain copies: 2; label: 5' biotin.
For series [2], the target named is T1, D-dimer (TGpr1; fibrin clot degradation …). Description: ELONA; TGpr1/SUBpr1 binding ratio, 500 nM aptamer. The following applies: chain copies: 2. The protocol: FIG. 6 is a graph of the relative fluorescence of five aptamers to TGpr-1 protein and SUBpr-1 protein. The test was performed with an ELONA method with fixed aptamer concentration (500 nM) and protein amount (2 ug/well). *p<0.01.

For series [3], the target named is Insoluble cross-linked fibrin / plasma-derived blood clot (Homo sapiens, UniProt P02671-2;P02675;P02679-2 P02671-2:36-644,P02675:45-491,P02679-2:27-437). Put plainly: qPCR-based binding assay. The note with it: tags: clot prepared from citrated plasma plus CaCl2. (In general: In qPCR the cycle at which signal appears reflects the starting amount.)
Sequence of Insoluble cross-linked fibrin / plasma-derived blood clot (P02671 other isoform, or with tags, fused parts or gaps, chain 1 of 3): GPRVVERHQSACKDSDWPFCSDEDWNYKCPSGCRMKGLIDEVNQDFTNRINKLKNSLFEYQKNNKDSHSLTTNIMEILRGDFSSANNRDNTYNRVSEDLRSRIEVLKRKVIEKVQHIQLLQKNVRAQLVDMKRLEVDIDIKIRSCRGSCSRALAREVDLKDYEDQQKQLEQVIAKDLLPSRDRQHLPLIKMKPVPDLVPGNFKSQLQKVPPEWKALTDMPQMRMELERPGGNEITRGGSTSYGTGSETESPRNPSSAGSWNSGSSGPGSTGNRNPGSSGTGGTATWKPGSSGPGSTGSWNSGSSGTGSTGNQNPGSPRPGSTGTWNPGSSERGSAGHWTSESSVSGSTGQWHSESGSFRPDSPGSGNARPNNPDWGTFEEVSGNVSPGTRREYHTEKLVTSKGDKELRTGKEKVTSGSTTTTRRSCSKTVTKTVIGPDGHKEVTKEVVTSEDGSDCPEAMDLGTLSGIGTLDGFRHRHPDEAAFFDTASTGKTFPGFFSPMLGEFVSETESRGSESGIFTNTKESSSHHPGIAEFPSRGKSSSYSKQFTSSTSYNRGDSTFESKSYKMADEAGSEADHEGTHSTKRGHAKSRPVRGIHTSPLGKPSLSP
Sequence of Insoluble cross-linked fibrin / plasma-derived blood clot (P02675 45-491, chain 2 of 3): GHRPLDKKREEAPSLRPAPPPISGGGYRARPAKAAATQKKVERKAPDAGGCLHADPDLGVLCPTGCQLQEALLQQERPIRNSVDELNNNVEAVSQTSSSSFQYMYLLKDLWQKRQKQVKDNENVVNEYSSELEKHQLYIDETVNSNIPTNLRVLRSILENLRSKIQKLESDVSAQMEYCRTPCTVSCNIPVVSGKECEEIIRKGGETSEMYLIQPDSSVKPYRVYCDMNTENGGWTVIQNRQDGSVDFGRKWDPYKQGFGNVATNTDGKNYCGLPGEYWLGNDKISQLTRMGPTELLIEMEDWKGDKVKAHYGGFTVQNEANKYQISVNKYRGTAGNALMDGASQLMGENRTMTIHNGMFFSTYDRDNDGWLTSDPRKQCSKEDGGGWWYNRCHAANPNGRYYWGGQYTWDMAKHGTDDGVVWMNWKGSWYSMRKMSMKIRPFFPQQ
Sequence of Insoluble cross-linked fibrin / plasma-derived blood clot (P02679 other isoform, or with tags, fused parts or gaps, chain 3 of 3): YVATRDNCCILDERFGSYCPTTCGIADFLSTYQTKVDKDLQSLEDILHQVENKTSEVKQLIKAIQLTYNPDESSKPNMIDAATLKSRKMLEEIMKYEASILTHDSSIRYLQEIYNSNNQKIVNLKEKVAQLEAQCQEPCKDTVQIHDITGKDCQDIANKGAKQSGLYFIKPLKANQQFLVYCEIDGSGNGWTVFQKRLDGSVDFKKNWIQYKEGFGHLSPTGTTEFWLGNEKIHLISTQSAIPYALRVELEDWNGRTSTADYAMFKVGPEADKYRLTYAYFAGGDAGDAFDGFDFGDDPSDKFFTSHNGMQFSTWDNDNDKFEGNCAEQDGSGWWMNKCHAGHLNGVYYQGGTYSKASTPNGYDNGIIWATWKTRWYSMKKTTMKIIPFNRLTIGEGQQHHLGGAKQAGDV
The target in series [4] is T1, D-dimer (TGpr1; fibrin clot degradation …). Put plainly: ELONA; unit printed as Nm. The note with it: chain copies: 2.
The target of a further series is Fibrinogen (UniProt P02671-2;P02675;P02679-2 P02671-2:20-644,P02675:31-491,P02679-2:27-437). Put plainly: ELONA; 100 nM aptamer. The note with it: chain copies: 2; label: 5' FAM (ELONA and imaging).
Sequence of Fibrinogen (P02671 other isoform, or with tags, fused parts or gaps, chain 1 of 3): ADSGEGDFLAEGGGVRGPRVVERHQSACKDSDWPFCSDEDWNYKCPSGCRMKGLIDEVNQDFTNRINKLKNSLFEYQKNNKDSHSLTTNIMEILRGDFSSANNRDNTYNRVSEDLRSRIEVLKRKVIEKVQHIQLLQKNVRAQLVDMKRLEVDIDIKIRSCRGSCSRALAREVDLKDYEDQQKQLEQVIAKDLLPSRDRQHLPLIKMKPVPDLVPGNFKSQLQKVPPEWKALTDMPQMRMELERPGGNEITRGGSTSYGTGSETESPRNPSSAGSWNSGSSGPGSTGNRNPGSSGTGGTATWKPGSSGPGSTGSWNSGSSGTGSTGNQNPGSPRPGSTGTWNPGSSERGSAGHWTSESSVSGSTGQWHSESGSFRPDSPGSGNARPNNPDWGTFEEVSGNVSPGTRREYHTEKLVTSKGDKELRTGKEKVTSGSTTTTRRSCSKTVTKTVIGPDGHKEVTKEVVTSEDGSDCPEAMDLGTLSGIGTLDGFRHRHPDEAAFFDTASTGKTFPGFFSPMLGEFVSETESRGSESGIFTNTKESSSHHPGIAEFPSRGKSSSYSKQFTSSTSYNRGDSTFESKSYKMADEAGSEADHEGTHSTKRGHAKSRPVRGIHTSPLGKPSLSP
Sequence of Fibrinogen (P02675 31-491, chain 2 of 3): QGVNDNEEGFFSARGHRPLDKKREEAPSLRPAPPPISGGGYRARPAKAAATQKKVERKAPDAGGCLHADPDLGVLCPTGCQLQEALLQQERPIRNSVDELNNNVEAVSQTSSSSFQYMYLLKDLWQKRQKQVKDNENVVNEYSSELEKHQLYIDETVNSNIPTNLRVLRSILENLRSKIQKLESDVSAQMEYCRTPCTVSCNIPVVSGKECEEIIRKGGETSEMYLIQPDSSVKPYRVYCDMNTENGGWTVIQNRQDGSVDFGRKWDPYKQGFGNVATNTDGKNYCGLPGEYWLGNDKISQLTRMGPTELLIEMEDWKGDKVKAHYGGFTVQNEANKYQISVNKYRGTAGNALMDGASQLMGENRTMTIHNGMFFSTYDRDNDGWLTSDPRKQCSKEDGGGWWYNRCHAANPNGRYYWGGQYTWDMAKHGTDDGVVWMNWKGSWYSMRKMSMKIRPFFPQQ
In series [5] the target is T1, D-dimer (TGpr1; fibrin clot degradation …). Put plainly: ELONA; 100 nM aptamer. The note with it: chain copies: 2; label: 5' FAM (ELONA and imaging).
Series [6] has the same target. Put plainly: ELONA. The following applies: chain copies: 2.

As a reminder, the Kd is the concentration at which binding is half-saturated.

T1 sequence (P02671 124-225, chain 1 of 3): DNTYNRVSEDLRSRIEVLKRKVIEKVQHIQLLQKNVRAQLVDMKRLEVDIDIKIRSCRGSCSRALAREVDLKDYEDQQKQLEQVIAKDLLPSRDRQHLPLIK
T1 sequence (P02675 164-491, chain 2 of 3): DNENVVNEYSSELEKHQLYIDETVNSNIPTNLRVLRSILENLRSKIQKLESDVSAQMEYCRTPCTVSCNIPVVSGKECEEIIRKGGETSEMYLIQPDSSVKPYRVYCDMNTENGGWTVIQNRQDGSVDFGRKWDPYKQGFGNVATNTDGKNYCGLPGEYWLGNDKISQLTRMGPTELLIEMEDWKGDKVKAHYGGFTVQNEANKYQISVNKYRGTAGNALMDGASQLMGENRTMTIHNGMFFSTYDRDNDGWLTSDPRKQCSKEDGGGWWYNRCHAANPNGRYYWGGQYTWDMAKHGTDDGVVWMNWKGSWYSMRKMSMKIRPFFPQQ
T1 sequence (P02679 other isoform, or with tags, fused parts or gaps, chain 3 of 3): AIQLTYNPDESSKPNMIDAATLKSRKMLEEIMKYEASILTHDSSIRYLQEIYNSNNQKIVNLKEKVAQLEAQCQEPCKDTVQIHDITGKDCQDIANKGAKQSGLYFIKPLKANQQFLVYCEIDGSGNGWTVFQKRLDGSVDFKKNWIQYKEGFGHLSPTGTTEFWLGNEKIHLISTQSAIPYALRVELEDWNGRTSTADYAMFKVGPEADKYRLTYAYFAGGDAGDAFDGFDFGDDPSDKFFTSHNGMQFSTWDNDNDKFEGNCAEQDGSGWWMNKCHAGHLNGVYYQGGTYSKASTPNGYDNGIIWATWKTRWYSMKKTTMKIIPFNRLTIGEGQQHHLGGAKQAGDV

B1: EM1 (ssDNA)
DNA: ACAAAGCGACACACAGGAGCCCAATGATGCTGTTATGGCGCTTTGTGGACAGGACCACACCCAGCG
For B1, the Kd in series [1] is above 1000 nM. As to AAGGGAAAGTGTATACACTATGGCT (ssDNA) [EM9-02], the binding signal in series [2] amounted to 1.85 ratio.

B2: RNV603 (ssDNA)
DNA: GGACAGGACCACACCCAGCGTGCGTGAAATTCGGGGCATGGTTAGGATAGGTAATATTTTGGCTCCTGTGTGTCGCTTTGT
With B2, the binding result in series [3] is reported as “binds”.

B3: AP10-01-81 (ssDNA)
DNA: GGACAGGACCACACCCAGCGACAGTGTGGGCGGGCGGGTGGTTTGGAGCTGGTAGCGGTAGGCTCCTGTGTGTCGCTTTGT
As for B3, binding in series [4] was characterised by a dissociation constant (Kd) of 59 nM.

B4: RNV602 (ssDNA)
DNA: GGACAGGACCACACCCAGCGTAATAATATGGGGCTTGCGGTCCCCGATTTTTATGCACACGGCTCCTGTGTGTCGCTTTGT
With B4, the binding result (with Fibrinogen; in series [5]) was “no binding” throughout. ACAGTGTGGGCGGGCGGGTGGTTTGGAGCTGGTAGCGGTA (ssDNA) [AP10-01]: in series [2], the binding signal was 4.21 ratio. For the same molecule, binding in series [6] was put at a Kd of 54 nM.

B5: AP1 (ssDNA)
DNA: ACAAAGCGACACACAGGAGCCCGGTCGGCGGGGGGGCGGGTGGAGAACGAGGTAGGGGTCAGGACAGGACCACACCCAGCG
The molecule B5 came in with a Kd in series [1] above 1000 nM.

B6: AP3 (ssDNA)
DNA: ACAAAGCGACACACAGGAGCCCGGTCGGCGGGTGGGCGGGTGGAGAACGAGGTAGGGGTCAGGACAGGACCACACCCAGCG
The molecule B6 came in with a Kd in series [1] above 1000 nM.

B7: RNV606 (ssDNA)
DNA: GGACAGGACCACACCCAGCGGATAACTAGGCACCCGGTGTCGTTATTATGACAAGATATTGGCTCCTGTGTGTCGCTTTGT
Consider B7, for which the binding result in series [3] is given as “binds”.

B8: RNV604 (ssDNA)
DNA: GGACAGGACCACACCCAGCGGATACCTGAAGCTGGCCCACATTTATCTACGCGATATATTGGCTCCTGTGTGTCGCTTTGT
Regarding B8, in series [3], the binding result is listed as “binds”.

B9: RNV607 (ssDNA)
DNA: GGACAGGACCACACCCAGCGAGGAAATATTTAGGCACCCGGTCTCTGAAAATATTGTGCTGGCTCCTGTGTGTCGCTTTGT
In the case of B9, the binding result in series [3] is recorded as “binds”.

B10: RNV605 (ssDNA)
DNA: GGACAGGACCACACCCAGCGATAATTAGGCATCCGGTCGCCAACCTTGGAGAAACTATCTGGCTCCTGTGTGTCGCTTTGT
Take B10: the binding result (with Fibrinogen; in series [5]) was “no binding” throughout.
